In patent US20250215097A1:

Target: human CCR8 (human) (UniProt P51685)
Assay: cell-based or functional assay

human CCR8 (human), sequence (P51685 whole entry): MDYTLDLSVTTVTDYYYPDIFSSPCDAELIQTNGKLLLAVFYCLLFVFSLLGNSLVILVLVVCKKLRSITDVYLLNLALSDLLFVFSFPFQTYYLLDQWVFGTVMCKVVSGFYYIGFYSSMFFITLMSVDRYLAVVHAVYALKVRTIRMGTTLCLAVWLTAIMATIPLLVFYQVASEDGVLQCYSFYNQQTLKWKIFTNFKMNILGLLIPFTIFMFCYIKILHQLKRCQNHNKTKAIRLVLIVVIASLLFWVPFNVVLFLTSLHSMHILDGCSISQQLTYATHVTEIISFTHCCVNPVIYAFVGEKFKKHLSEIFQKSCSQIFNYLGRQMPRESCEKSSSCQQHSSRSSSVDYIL

| Binder | ADCC EC50 (nM), NK92-CD16A effectors, HEK293-hCCR8 targets, LDH release [nM] | ADCC EC50 (nM), PBMC FcγRIIIA158F/F effectors, HEK293-hCCR8 targets [nM] | ADCC EC50 (nM), PBMC FcγRIIIA158V/V effectors, HEK293-hCCR8 targets [nM] | ADCC half-maximal effective concentration (EC50), NK92-CD16A effectors, HEK293-hCCR8 targets [nM] | ADCC maximal lysis rate, NK92-CD16A effectors, HEK293-hCCR8 targets [%] | ADCC maximal lysis rate, PBMC FcγRIIIA158F/F effectors, HEK293-hCCR8 targets [%] | ADCC maximal lysis rate, PBMC FcγRIIIA158V/V effectors, HEK293-hCCR8 targets [%] |
| --- | --- | --- | --- | --- | --- | --- | --- |
| m10A11 (chimera) (antibody, from another filing, V domains shown) VH: EVQLVESGGRLVQPKGSLKLSCAASGFAFNTYALYWIRQAPGKGLEWVARIRSKSNNYATYYADSVKDRFTISRDDSQSMLYLQMNNLKTEDTAMYYCVRARFYYSDYGYAMDYWGQGTSVTVSS VL: DIVMTQAAPSVPVTPGESVSISCRSSKSLLHSNGNTYLYWFLQRPGQSPQLLIYRMSNLASGVPDRFSGSGSGTAFTLRISRVEAEDVGVYYCMQHLEYPLTFGAGTKLELKR | 0.12 | 0.19 | 0.05 | 0.03 | 30 | 66 | 68 |
| h10A11 (antibody, from another filing, V domains shown) VH: EVQLVESGGALVKPGGSLRLSCAASGFTFSTYALYWVRQAPGKGLEWVGRIRSKSNNYATYYADSVKDRFTISRDDSKNTLYLQMNSLKTEDTAVYYCTRARFYYSDYGYAMDYWGQGTLVTVSS VL: DIVMTQSPDSLAVSLGERATINCRSSKSLLHSNGNTYLYWYQQKPGQPPKLLIYRMSNLASGVPDRFSGSGSGTDFTLTISSLQAEDVAVYYCMQHLEYPLTFGQGTKLEIKR |  | 0.21 | 0.03 |  |  | 61 | 63 |
